Test results: US20040126856A1, “Factor ixa: factor Vllla interaction and methods therefor” (priority 2004, published 2004)
Values belong to the molecule of their own block, whether it stands above or below them.

Legend:
[1] = biological target: T1, A2 subunit of factor VIIIa (Homo sapiens, UniProt P00451); test: Apparent KdA2 of dEGR-IXa proteins: inhibition of IXaWT:A2 subunit interaction in the tenase system; type: biochemical; settings: 100 nM IXaWT, 30 nM A2 subunit, 250 nM factor X, 25 μM PL; from IC50 by Eq. 3 (FIG. 3); read-out: Apparent KdA2
T1 construct: cleaved by thrombin at R372-S373, R740-S741, and R1689-S1690 to yield factor VIIIa
T1 sequence (P00451 392-759): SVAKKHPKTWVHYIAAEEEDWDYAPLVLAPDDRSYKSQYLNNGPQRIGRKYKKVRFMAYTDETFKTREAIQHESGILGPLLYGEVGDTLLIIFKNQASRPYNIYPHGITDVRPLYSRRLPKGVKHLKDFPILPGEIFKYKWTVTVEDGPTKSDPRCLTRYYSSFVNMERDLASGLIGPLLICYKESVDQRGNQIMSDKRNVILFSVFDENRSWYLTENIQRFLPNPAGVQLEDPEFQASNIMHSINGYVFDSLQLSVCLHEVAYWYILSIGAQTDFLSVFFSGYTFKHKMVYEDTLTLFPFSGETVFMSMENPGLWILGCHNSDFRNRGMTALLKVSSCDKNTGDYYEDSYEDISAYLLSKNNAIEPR
Protocol: Determination of KdA2 of Binding of dEGR-IXa Proteins to A2 Subunit.
The apparent Kd (termed KdA2) for binding of each dEGR-IXa protein to the A2 subunit was determined by its ability to inhibit factor IXaWT:A2 subunit interaction in the tenase complex as described earlier for intact factor VIIIa (Mather and Bajaj, 1999; Mather et al., 1997). The reactions were carried out as described for the EC50 experiments above except dEGR-IXa and IXaWT were mixed prior to addition of the A2 subunit; this ensured steady state conditions. Mixtures contained 100 nM IXaWT, 30 nM A2 subunit, 250 nM factor X, 25 μM PL, and various concentrations of dEGR-IXa proteins in TBS/BSA, pH 7.5 containing 5 mM CaCl2. The IC50 (concentration of inhibitor required for 50% inhibition) was determined by fitting the data to the IC50 four-parameter logistic equation of Halfman (1981) given below (Eq. 2). [formula]
where y is the rate of Xa formation in the presence of a given concentration of dEGR-IXa protein represented by x, a is the maximum rate of factor Xa formation in the absence of dEGR-IXa, and s is the slope factor. Each point was weighted equally, and the data were fitted to Equation 2 using the nonlinear regression analysis program GraFit from Erithacus Software. […] To obtain KdA2 values for the interaction of dEGR-IXa proteins with A2, we used the following equation (Eq. 3) as described by Cheng and Prusoff (1973) and further elaborated by Craig (1993). [formula]
where A is the concentration of IXaWT, and EC50 is the concentration of factor IXaWT that gives a 50% maximum response in the absence of the competitor at a specified concentration of factor X used in the experiment.

[2] = tested on: T2, A2 subunit of factor VIIIa
T2 sequence: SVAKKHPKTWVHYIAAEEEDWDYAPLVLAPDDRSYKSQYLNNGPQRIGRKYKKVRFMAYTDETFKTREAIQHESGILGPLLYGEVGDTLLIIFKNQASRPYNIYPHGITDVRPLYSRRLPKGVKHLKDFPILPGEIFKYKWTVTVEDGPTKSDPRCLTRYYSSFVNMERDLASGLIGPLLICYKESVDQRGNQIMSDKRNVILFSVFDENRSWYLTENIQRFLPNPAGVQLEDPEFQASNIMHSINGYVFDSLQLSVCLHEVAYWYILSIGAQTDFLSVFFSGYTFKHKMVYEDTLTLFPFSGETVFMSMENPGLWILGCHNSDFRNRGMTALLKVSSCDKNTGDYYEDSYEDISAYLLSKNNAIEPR

[3] = biological target: A2 subunit of factor VIIIa (human) (UniProt P00451); test: potentiation of factor X activation by A2 subunit (FIGS. 1 and 2); functional Kd
[4] = biological target: A2 subunit of factor VIIIa (human) (UniProt P00451); test: factor Xa generation at rising A2 subunit, 5 nM IXa; factor X <150 nM; functional Kd
[5] = biological target: A2 subunit of factor VIIIa (human) (UniProt P00451); test: factor Xa generation at rising A2 subunit, 5 nM IXa; factor X >1 µM; functional Kd
[6] = biological target: T3, dEGR-IXaVIIhelix (factor IXaVIIhelix inactivated with dansyl-Glu-Gly-Arg-chloromethyl ketone) (human, UniProt P08709 364-372, active site inactivated with dansyl-Glu-Gly-Arg-chloromethyl ketone (dEGR-ck); gamma-carboxyglutamic acid residues in the Gla domain (normal Gla content)); test: dEGR-IXa competition with 100 nM IXaWT for 30 nM A2 in tenase assay (FIG. 3); apparent KdA2
T3 construct: domain: helix c162-170; also called dEGR-IXVIIhelix

[7] = biological target: T4, dEGR-IXaWT (factor IXaWT inactivated with dansyl-Glu-Gly-Arg-chloromethyl ketone) (human, UniProt P00740 47-190; P00740 227-461, active site inactivated with dansyl-Glu-Gly-Arg-chloromethyl ketone (dEGR-ck); gamma-carboxyglutamic acid residues in the Gla domain (normal Gla content)); test: dansyl fluorescence quenching, 220 nM dEGR-IXa titrated with A2 subunit, bimolecular association fit (FIG. 4)
T4 construct: also called dEGR-IXWT
Protocol: (§1) The effect of the A2 subunit on the emission intensity of the dansyl moiety in each dEGR-IXa protein was determined using the SLM AB2 spectrofluorometer. Each reaction mixture contained 220 nM dEGR-IXa in 20 mM Hepes, pH 7.2, 100 mM NaCl, 5 mM CaCl₂, 0.01% Tween, 200 μg/ml BSA and 100 μM PL vesicles. The excitation wavelength was 340 nm (slit width, 8 nm) and the emission wavelength was 540 nm (slit width; 8 nm). First, blank values (in triplicate) were obtained for the buffer containing PL. dEGR-IXa was then added and the emission intensity in the absence of the A2 subunit was recorded. Each reaction mixture was subsequently titrated with the A2 subunit and the emission readings (in triplicate) were obtained at each time point. The fluorescence emission intensity at each point was corrected for increases in the reaction volume prior to analysis of the data. […] Data are presented as F/F₀ where F₀ is the emission intensity in the absence of A2 subunit and F is the intensity at a given A2 subunit concentration.

[8] = biological target: T5, dEGR-IXaPCEGF1 (factor IXaPCEGF1 inactivated with dansyl-Glu-Gly-Arg-chloromethyl ketone) (human, UniProt P04070 88-134, limits assumed, active site inactivated with dansyl-Glu-Gly-Arg-chloromethyl ketone (dEGR-ck); gamma-carboxyglutamic acid residues in the Gla domain (normal Gla content)); test: as above
T5 construct: domain: EGF1
Protocol: as §1

[9] = biological target: T4, dEGR-IXaWT (factor IXaWT inactivated …); test: dEGR-IXa competition with 100 nM IXaWT for 30 nM A2 in tenase assay (FIG. 3); IC50 converted by Cheng-Prusoff; apparent KdA2
[10] = biological target: dEGR-IXaR333Q (factor IXaR333Q inactivated with dansyl-Glu-Gly-Arg-chloromethyl ketone) (human, UniProt P00740 47-190; P00740 227-461, active site inactivated with dansyl-Glu-Gly-Arg-chloromethyl ketone (dEGR-ck); gamma-carboxyglutamic acid residues in the Gla domain (normal Gla content)); test: as above
[11] = biological target: T5, dEGR-IXaPCEGF1 (factor IXaPCEGF1 …); test: as above

T5 sequence (P04070 other isoform, or with tags, fused parts or gaps limits assumed, form in doubt, chain 1 of 2): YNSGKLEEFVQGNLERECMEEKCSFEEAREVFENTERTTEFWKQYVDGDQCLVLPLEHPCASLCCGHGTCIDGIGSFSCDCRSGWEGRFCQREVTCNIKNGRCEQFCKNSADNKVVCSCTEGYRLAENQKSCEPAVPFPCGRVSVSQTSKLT
T5 sequence (heavy, as listed by the source limits assumed, form in doubt, chain 2 of 2): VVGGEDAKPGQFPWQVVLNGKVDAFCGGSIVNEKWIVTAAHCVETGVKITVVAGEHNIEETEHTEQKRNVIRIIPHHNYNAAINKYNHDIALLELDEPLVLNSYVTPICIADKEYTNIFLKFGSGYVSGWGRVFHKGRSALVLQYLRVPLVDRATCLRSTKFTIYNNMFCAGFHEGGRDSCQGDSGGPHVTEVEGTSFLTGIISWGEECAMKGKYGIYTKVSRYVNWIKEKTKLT
T4 sequence (P00740 47-190, form in doubt, chain 1 of 2): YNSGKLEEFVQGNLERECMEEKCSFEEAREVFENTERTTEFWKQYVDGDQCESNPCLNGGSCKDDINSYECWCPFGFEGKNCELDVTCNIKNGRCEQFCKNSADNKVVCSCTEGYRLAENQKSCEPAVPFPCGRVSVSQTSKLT
Sequence of dEGR-IXaR333Q (factor IXaR333Q inactivated with dansyl-Glu-Gly-Arg-chloromethyl ketone) (P00740 47-190, form in doubt, chain 1 of 2): as above
Sequence of dEGR-IXaR333Q (factor IXaR333Q inactivated with dansyl-Glu-Gly-Arg-chloromethyl ketone) (P00740 227-461 R379Q, form in doubt, chain 2 of 2): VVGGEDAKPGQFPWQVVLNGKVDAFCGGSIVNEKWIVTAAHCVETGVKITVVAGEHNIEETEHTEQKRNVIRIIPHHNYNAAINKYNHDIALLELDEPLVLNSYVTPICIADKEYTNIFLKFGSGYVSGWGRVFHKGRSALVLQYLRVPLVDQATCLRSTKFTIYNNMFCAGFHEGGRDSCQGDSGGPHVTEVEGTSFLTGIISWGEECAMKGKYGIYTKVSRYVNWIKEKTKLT
T3 sequence (light, as listed by the source limits assumed, form in doubt, chain 1 of 2): as the sequence (P00740 47-190, form in doubt, chain 1 of 2) above
T3 sequence (heavy, as listed by the source limits assumed, form in doubt, chain 2 of 2): as the sequence (P00740 227-461 R379Q, form in doubt, chain 2 of 2) above, with L150R, V151L, D152M, Q153T, A154Q, T155D, R158Q counted along it

Molecule: dEGR-IXaPCEGF1: IXaPCEGF1 inactivated with dEGR-ck
Kd [1]: ~0.1 µM

Molecule: dEGR-IXaWT: IXaWT inactivated with dansyl-Glu-Gly-Arg-chloromethyl ketone (dEGR-ck)
Kd [1]: ~0.1 µM

Molecule: factor IXaPCEGF1 (factor IXa replacement mutant in which the EGF1 domain is replaced by that of protein C)
enhancement of factor X activation (factor Xa generation, S-2222 hydrolysis) [2]: The presence of the A2 subunit in the reaction mixtures enhanced the factor X-activating activity of IXaPCEGF1 to the same extent as that of IXaWT

Molecule: factor IXaVIIhelix (factor IXa replacement mutant in which helix 330-338 (c162-170) is replaced by that of factor VII)
enhancement of factor X activation (factor Xa generation, S-2222 hydrolysis) [2]: it was absent for the IXaVIIhelix

Molecule: factor IXaWT (wild-type recombinant factor IX activated by factor XIa)
enhancement of factor X activation (factor Xa generation, S-2222 hydrolysis) [2]: The presence of the A2 subunit in the reaction mixtures enhanced the factor X-activating activity of IXaPCEGF1 to the same extent as that of IXaWT

Second part, the molecule after the results:

Kd [1]: ~1.8 µM
Molecule: dEGR-IXaR333Q: IXaR333Q inactivated with dEGR-ck

EC50 [3]: 0.25 µM
EC50 [4]: 0.3 µM
EC50 [5]: 0.2 µM
Molecule: factor IXaPCEGF1 (factor IXa replacement mutant in which the EGF1 domain is replaced by that of protein C) (from UniProt P04070 88-134) (enzyme)

Kd [6]: > 1 µM
Kd [7]: ~0.1 µM
Kd [8]: ~0.1 µM
Kd [9]: 0.1 µM
Kd [10]: 1.85 µM
Kd [11]: 0.114 µM
B1: A2 subunit of factor VIIIa (other)
chain: SVAKKHPKTWVHYIAAEEEDWDYAPLVLAPDDRSYKSQYLNNGPQRIGRKYKKVRFMAYTDETFKTREAIQHESGILGPLLYGEVGDTLLIIFKNQASRPYNIYPHGITDVRPLYSRRLPKGVKHLKDFPILPGEIFKYKWTVTVEDGPTKSDPRCLTRYYSSFVNMERDLASGLIGPLLICYKESVDQRGNQIMSDKRNVILFSVFDENRSWYLTENIQRFLPNPAGVQLEDPEFQASNIMHSINGYVFDSLQLSVCLHEVAYWYILSIGAQTDFLSVFFSGYTFKHKMVYEDTLTLFPFSGETVFMSMENPGLWILGCHNSDFRNRGMTALLKVSSCDKNTGDYYEDSYEDISAYLLSKNNAIEPR
notes: also called isolated A2 subunit
